Test system: pCMV.Luciferase reporter gene expression in HEK293 cells
Test: Ablation of luciferase reporter by FokI ablators co-transfected into HEK293 cells (Dual Luciferase assay)
Assay type: cell-based, human
Details: for ablation of Luc reporter with increasing concentration of ablator expression plasmid: 6.25, 12.5, 25, 50 and 100 ng expression plasmid cotransfected with 50 ng pCMV.Luciferase; for expression of the luciferase reporter gene: FIG. 18A: 50 ng pCMV.Luciferase + 200 ng pCMV.FokI, or + transfected FokI protein
Protocol: Open reading frames encoding for various endonucleases were codon optimized and de novo synthesized by GeneArt. Ablator expression and target plasmids were produced using standard molecular biological cloning techniques. Transfections were performed in HEK293 cells using Lipofectamine™ 2000 transfection reagent (Life Technologies). All transfections were performed using optimal transfection conditions as defined in transfection reagent protocol. Briefly, 200-250 ng plasmid DNA (excluding transfection control plasmid) was complexed with Lipofectamine™ 2000 transfection reagent and added to cells in 96 well plates. DNA quantities were consistent across all conditions by supplementation with an unrelated plasmid containing the same promoter as test plasmids. Transfection complexes were incubated with cells for 4-6 hours as transfection reagent protocol before the addition of FBS supplemented media. Transfected cells were incubated at 37° C. for 24-72 hours. Following incubation, cells were assayed for reporter gene expression using Promega Dual Luciferase detection kit according to the manufacturer's instructions on a BioTek Clarity platereader and renilla luciferase was used to control for transfection efficiency. All samples were performed in quadruplicate and standard errors of the mean were calculated.
The amino acid sequence of the FokI enzyme is provided in SEQ ID NO: 12, wherein amino acids 1 to 387 are the DNA binding domain and amino acids 387 to 584 are the catalytic domain. The codon optimized FokI sequence is provided in SEQ ID NO:1.
In a dose-dependent experiment, the FokI expression vector contained the FokI catalytic domain fused to a zinc finger DNA binding domain (ZFHD). This construct, which is 963 bp, is provided in SEQ ID NO: 21 and is composed of base pairs 1 to 366 bp ZFHD, 367 to 372 bp linker, and 373 to 963 bp FokI catalytic domain. The resulting expression product comprises amino acids 1 to 122 (ZFHD), amino acids 123-124 are a linker and amino acids 125 to 321 are from the FokI catalytic domain. […] No ablation sites were required to be engineered into the transcription unit containing the transgene in this illustration, as luciferase contains multiple native FokI sites.
The plasmid contructs in this example contains either the FokI catalytic domain (198 amino acids (SEQ ID NO: 14), corresponding to amino acids 387 to 584 of the full-length protein) (untethered FokI) or a ZFHD-Fokl catalytic domain of 963 bp as described in Part A above (tethered FokI). Even at the highest concentration, the catalytic domain of FokI which is un-tethered to DNA does have no effect on expression of Luc reporter gene (FIG. 19A).
The HTH-FokI Catalytic domain (SEQ ID NO:5), is composed of 1-171 bp HTH from Gin (a serine recombinase), a linker (bp 172-177), and a FokI catalytic domain (178-768 bp) derived from codon-optimized FokI. The resulting chimeric enzyme (SEQ ID NO: 6) contains aa 1-57 of HTH from Gin, a linker (aa 58-59), and a FokI catalytic domain (amino acids 60-256).

For “ZFHD-FokI: FokI catalytic domain fused to a zinc finger homeodomain DNA binding domain (ZFHD), 963 bp, SEQ ID NO: 21”, the “ablation of Luc reporter with increasing concentration of ablator expression plasmid” value was “dose dependent ablation” and the “ablation of Luc reporter with increasing concentration of ablator expression plasmid” value (listed as ZF-HD-FokI) was “effectively ablated”.

B1: wild-type FokI: full-length FokI enzyme (SEQ ID NO: 12) expressed from a cotransfected codon optimized plasmid (protein)
chain: MFLSMVSKIRTFGWVQNPGKFENLKRVVQVFDRNSKVHNEVKNIKIPTLVKESKIQKELVAIMNQHDLIYTYKELVGTGTSIRSEAPCDAIIQATIADQGNKKGYIDNWSSDGFLRWAHALGFIEYINKSDSFVITDVGLAYSKSADGSAIEKEILIEAISSYPPAIRILTLLEDGQHLTKFDLGKNLGFSGESGFTSLPEGILLDTLANAMPKDKGEIRNNWEGSSDKYARMIGGWLDKLGLVKQGKKEFIIPTLGKPDNKEFISHAFKITGEGLKVLRRAKGSTKFTRVPKRVYWEMLATNLTDKEYVRTRRALILEILIKAGSLKIEQIQDNLKKLGFDEVIETIENDIKGLINTGIFIEIKGRFYQLKDHILQFVIPNRGVGTKQLVKSELEEKKSELRHKLKYVPHEYIELIEIARNPTQDRILEMKVMEFFMKVYGYRGEHLGGSRKPDGAIYTVGSPIDYGVIVDTKAYSGGYNLPIGQADEMQRYVEENQTRNKHINPNEWWKVYPSSVTEFKFLFVSGHFKGNYKAQLTRLNHITNCNGAVLSVEELLIGGEMIKAGTLTLEEVRRKFNNGEINF
With B1 the “expression of the luciferase reporter gene” value was “effective ablated”.

B2: FokI protein: FokI protein delivered (transfected) to the cells (protein, UniProt P14870 2-579, looked up)
Type II restriction enzyme …: VSKIRTFGWVQNPGKFENLKRVVQVFDRNSKVHNEVKNIKIPTLVKESKIQKELVAIMNQHDLIYTYKELVGTGTSIRSEAPCDAIIQATIADQGNKKGYIDNWSSDGFLRWAHALGFIEYINKSDSFVITDVGLAYSKSADGSAIEKEILIEAISSYPPAIRILTLLEDGQHLTKFDLGKNLGFSGESGFTSLPEGILLDTLANAMPKDKGEIRNNWEGSSDKYARMIGGWLDKLGLVKQGKKEFIIPTLGKPDNKEFISHAFKITGEGLKVLRRAKGSTKFTRVPKRVYWEMLATNLTDKEYVRTRRALILEILIKAGSLKIEQIQDNLKKLGFDEVIETIENDIKGLINTGIFIEIKGRFYQLKDHILQFVIPNRGVTKQLVKSELEEKKSELRHKLKYVPHEYIELIEIARNSTQDRILEMKVMEFFMKVYGYRGKHLGGSRKPDGAIYTVGSPIDYGVIVDTKAYSGGYNLPIGQADEMQRYVEENQTRNKHINPNEWWKVYPSSVTEFKFLFVSGHFKGNYKAQLTRLNHITNCNGAVLSVEELLIGGEMIKAGTLTLEEVRRKFNNGEINF
B2 was tested, and the “expression of the luciferase reporter gene” value was “partial ablation”.

B3: untethered FokI: FokI catalytic domain alone, 198 amino acids (SEQ ID NO: 14), un-tethered to DNA (protein)
chain: MKQLVKSELEEKKSELRHKLKYVPHEYIELIEIARNPTQDRILEMKVMEFFMKVYGYRGEHLGGSRKPDGAIYTVGSPIDYGVIVDTKAYSGGYNLPIGQADEMQRYVEENQTRNKHINPNEWWKVYPSSVTEFKFLFVSGHFKGNYKAQLTRLNHITNCNGAVLSVEELLIGGEMIKAGTLTLEEVRRKFNNGEINF
B3 was tested, and the “ablation of Luc reporter with increasing concentration of ablator expression plasmid” value was “no effect”.

B4: HTH-FokI: HTH from Gin (a serine recombinase), a linker and FokI catalytic domain, SEQ ID NO: 6 (protein)
chain: MGRPPRLTKAEWEQAGRLLAQGIPRKQVALIYDVALSTLYKKHPAKRAHIENDDRINGTKQLVKSELEEKKSELRHKLKYVPHEYIELIEIARNPTQDRILEMKVMEFFMKVYGYRGEHLGGSRKPDGAIYTVGSPIDYGVIVDTKAYSGGYNLPIGQADEMQRYVEENQTRNKHINPNEWWKVYPSSVTEFKFLFVSGHFKGNYKAQLTRLNHITNCNGAVLSVEELLIGGEMIKAGTLTLEEVRRKFNNGEINF
For B4, the “ablation of Luc reporter with increasing concentration of ablator expression plasmid” value was “effectively ablated”.

B5: NLS-HTH-FokI: HTH-FokI fusion which further has a heterologous NLS at its N-terminus (protein)
chain: MPKKKRKVGRPPRLTKAEWEQAGRLLAQGIPRKQVALIYDVALSTLYKKHPAKRAHIENDDRINGTKQLVKSELEEKKSELRHKLKYVPHEYIELIEIARNPTQDRILEMKVMEFFMKVYGYRGEHLGGSRKPDGAIYTVGSPIDYGVIVDTKAYSGGYNLPIGQADEMQRYVEENQTRNKHINPNEWWKVYPSSVTEFKFLFVSGHFKGNYKAQLTRLNHITNCNGAVLSVEELLIGGEMIKAGTLTLEEVRRKFNNGEINF
modifications: modified enzyme from SV40, Gin and FokI
notes: HTH-FokI fusion which further has a heterologous NLS at its N-terminus
In the case of B5, the “activity of HTH-FokI after adding heterologous NLS at the N-terminus” value (6.25-100 ng expression plasmid with 50 ng pCMV.Luciferase, separate experiment) is reported as “further improved”.

— patent US9315825B2, “Pharmacologically induced transgene ablation system” (The Trustees of the University of Pennsylvania, priority 2010, dated 2016)
